Substrate in data set [1]: CCCCCCCCCCCC(=O)N[C@@H](Cc1ccccc1)C(=O)O
Put plainly: ninhydrin assay of released amino acid, initial rates. The data set is classed as biochemical, Paraburkholderia monticola. Particulars: hydrolysis, 100 mM Na-borate pH 9.0, Zn2+ (50 µM), 30 °C in Results (Methods print 50 °C).

Substrate in data set [2]: CCCCCCCCCCCC(=O)N[C@@H](C)C(=O)O
Described as above. It is filed as biochemical, Paraburkholderia monticola. Particulars: hydrolysis, 100 mM Na-borate pH 9.0, Zn2+ (50 µM), 30 °C in Results (Methods print 50 °C).

B1: PmAcy (N-terminally StrepII-tagged aminoacylase) (Paraburkholderia monticola) (protein)
chain: MLSLVLPGLSQAQSTLPPAPPAKPVLFTNFRLFDGKSMTLRDGLYMVVEGNSISQLGQGQPASVEGKTLVDCGGKVMMPGLIDMHWHALLAALPIQVILQSDIAFVHLAASAEAERTLLRGFTTIRDAGGPSFALKQAIDSGMISGPRIYPSGAMITTTGGHGDFRPLTDLPRTSSQVTQGERDGGFAIADTEDEMRVRVREQFIQGATQIKLVGSGGVSTPRSPLDMLTFTEKQLRAAVETAADWGTYVLSHAYTPEAVQRSVAAGAQCIEHGHLMDDKTAALMAKNGTWLSTQPFISEEDVGPLAPQSREKFLEVVAGTDNAFRLARKHGIKVAFGTDLLFSQAIATRQGTMLTHMKRWYSPAEALGMATGTNGQLLALTGKRNPYPRRLGVLEEGAYADLLLVDGNPLENLDLIANPEQNLRIVMKDGKFYKNTLKA
notes: full-length codon-optimised gene, N-terminal StrepII-tag with serine-glycine linker kept; E. coli BL21 (DE3) pGro7 (GroEL/S)
For B1, the Michaelis-Menten constant (Km) in data set [1] was found to be 210 µM; in data set [2], 1950 µM.

Broadly, the Km is the concentration of substrate that gives half-maximal velocity.

For the origin of these results see publication PMC10781821, “Novel recombinant aminoacylase from Paraburkholderia monticola capable of N-acyl-amino acid synthesis” (Applied Microbiology and Biotechnology, 2024).
